# In patent US9637764B2, “Methods of producing 7-carbon chemicals via carbon chain elongation associated with cyclohexane carboxylate synthesis” (INVISTA North America S.á r.l., priority 2012, dated 2017):
# B1: tesB: Escherichia coli thioesterase encoded by tesB, GenBank Accession No. AAA24665.1 (protein, listed as Escherichia coli)
# chain: MSQALKNLLTLLNLEKIEEGLFRGQSEDLGLRQVFGGQVVGQALYAAKETVPEERLVHSFHSYFLRPGDSKKPIIYDVETLRDGNSFSARRVAAIQNGKPIFYMTASFQAPEAGFEHQKTMPSAPAPDGLPSETQIAQSLAHLLPPVLKDKFICDRPLEVRPVEFHNPLKGHVAEPHRQVWIRANGSVPDDLRVHQYLLGYASDLNFLPVALQPHGIGFLEPGIQIATIDHSMWFHRPFNLNEWLLYSVESTSASSARGFVRGEFYTQDGVLVASTVQEGVMRNHN
# B2: SEQ ID NO 4: Segniliparus rugosus carboxylate reductase, Genbank Accession No. EFV11917.1 (protein, listed as Segniliparus rugosus)
# chain: MGDGEERAKRFFQRIGELSATDPQFAAAAPDPAVVEAVSDPSLSFTRYLDTLMRGYAERPALAHRVGAGYETISYGELWARVGAIAAAWQADGLAPGDFVATVGFTSPDYVAVDLAAARSGLVSVPLQAGASLAQLVGILEETEPKVLAASASSLEGAVACALAAPSVQRLVVFDLRGPDASESAADERRGALADAEEQLARAGRAVVVETLADLAARGEALPEAPLFEPAEGEDPLALLIYTSGSTGAPKGAMYSQRLVSQLWGRTPVVPGMPNISLHYMPLSHSYGRAVLAGALSAGGTAHFTANSDLSTLFEDIALARPTFLALVPRVCEMLFQESQRGQDVAELRERVLGGRLLVAVCGSAPLSPEMRAFMEEVLGFPLLDGYGSTEALGVMRNGIIQRPPVIDYKLVDVPELGYRTTDKPYPRGELCIRSTSLISGYYKRPEITAEVFDAQGYYKTGDVMAEIAPDHLVYVDRSKNVLKLSQGEFVAVAKLEAAYGTSPYVKQIFVYGNSERSFLLAVVVPNAEVLGARDQEEAKPLIAASLQKIAKEAGLQSYEVPRDFLIETEPFTTQNGLLSEVGKLLRPKLKARYGEALEARYDEIAHGQADELRALRDGAGQRPVVETVVRAAVAISGSEGAEVGPEANFADLGGDSLSALSLANLLHDVFEVEVPVRIIIGPTASLAGIAKHIEAERAGASAPTAASVHGAGATRIRASELTLEKFLPEDLLAAAKGLPAADQVRTVLLTGANGWLGRFLALEQLERLARSGQDGGKLICLVRGKDAAAARRRIEETLGTDPALAARFAELAEGRLEVVPGDVGEPKFGLDDAAWDRLAEEVDVIVHPAALVNHVLPYHQLFGPNVVGTAEIIRLAITAKRKPVTYLSTVAVAAGVEPSSFEEDGDIRAVVPERPLGDGYANGYGNSKWAGEVLLREAHELVGLPVAVFRSDMILAHTRYTGQLNVPDQFTRLVLSLLATGIAPKSFYQQGAAGERQRAHYDGIPVDFTAEAITTLGAEPSWFDGGAGFRSFDVFNPHHDGVGLDEFVDWLIEAGHPISRIDDHKEWFARFETAVRGLPEAQRQHSLLPLLRAYSFPHPPVDGSVYPTGKFQGAVKAAQVGSDHDVPHLGKALIVKYADDLKALGLL
# B3: SEQ ID NO 6: Mycobacterium massiliense carboxylate reductase, Genbank Accession No. EIV11143.1 (protein)
# chain: MTNETNPQQEQLSRRIESLRESDPQFRAAQPDPAVAEQVLRPGLHLSEAIAALMTGYAERPALGERARELVIDQDGRTTLRLLPRFDTTTYGELWSRTTSVAAAWHHDATHPVKAGDLVATLGFTSIDYTVLDLAIMILGGVAVPLQTSAPASQWTTILAEAEPNTLAVSIELIGAAMESVRATPSIKQVVVFDYTPEVDDQREAFEAASTQLAGTGIALETLDAVIARGAALPAAPLYAPSAGDDPLALLIYTSGSTGAPKGAMHSENIVRRWWIREDVMAGTENLPMIGLNFMPMSHIMGRGTLTSTLSTGGTGYFAASSDMSTLFEDMELIRPTALALVPRVCDMVFQRFQTEVDRRLASGDTASAEAVAAEVKADIRDNLFGGRVSAVMVGSAPLSEELGEFIESCFELNLTDGYGSTEAGMVFRDGIVQRPPVIDYKLVDVPELGYFSTDKPHPRGELLLKTDGMFLGYYKRPEVTASVFDADGFYMTGDIVAELAHDNIEIIDRRNNVLKLSQGEFVAVATLEAEYANSPVVHQIYVYGSSERSYLLAVVVPTPEAVAAAKGDAAALKTTIADSLQDIAKEIQLQSYEVPRDFIIEPQPFTQGNGLLTGIAKLARPNLKAHYGPRLEQMYAEIAEQQAAELRALHGVDPDKPALETVLKAAQALLGVSSAELAADAHFTDLGGDSLSALSFSDLLRDIFAVEVPVGVIVSAANDLGGVAKFVDEQRHSGGTRPTAETVHGAGHTEIRAADLTLDKFIDEATLHAAPSLPKAAGIPHTVLLTGSNGYLGHYLALEWLERLDKTDGKLIVIVRGKNAEAAYGRLEEAFDTGDTELLAHFRSLADKHLEVLAGDIGDPNLGLDADTWQRLADTVDVIVHPAALVNHVLPYNQLFGPNVVGTAEIIKLAITTKIKPVTYLSTVAVAAYVDPTTFDEESDIRLISAVRPIDDGYANGYGNAKWAGEVLLREAHDLCGLPVAVFRSDMILAHSRYTGQLNVPDQFTRLILSLIATGIAPGSFYQAQTTGERPLAHYDGLPGDFTAEAITTLGTQVPEGSEGFVTYDCVNPHADGISLDNFVDWLIEAGYPIARIDNYTEWFTRFDTAIRGLSEKQKQHSLLPLLHAFEQPSAAENHGVVPAKRFQHAVQAAGIGPVGQDGTTDIPHLSRRLIVKYAKDLEQLGLL
# modifications: Mycobacterium massiliense
# What was measured:
# Format in all cases: biochemical
# [1] = Thioesterase enzyme activity assay, pimeloyl-CoA to pimelate (release of Coenzyme A, Ellman's reagent, absorbance at 412 nm); details: 667 μM pimeloyl-CoA, 0.8 μM enzyme, pH=7.4, 37° C., 20 min; compared to the empty vector control; FIG. 8
# Description: A sequence encoding an N-terminal His tag was added to the tesB gene from Escherichia coli that encodes a thioesterase (SEQ ID NO 1, see FIG. 7A), such that an N-terminal HIS tagged thioesterase could be produced. The modified tesB gene was cloned into a pET15b expression vector under control of the T7 promoter. The expression vector was transformed into a BL21[DE3] E. coli host. The resulting recombinant E. coli strain was cultivated at 37° C. in a 500 mL shake flask culture containing 50 mL Luria Broth (LB) media and antibiotic selection pressure, with shaking at 230 rpm. The culture was induced overnight at 17° C. using 0.5 mM IPTG.
# The pellet from the induced shake flask culture was harvested via centrifugation. The pellet was resuspended and lysed in Y-Per™ solution (ThermoScientific, Rockford, Ill.). The cell debris was separated from the supernatant via centrifugation. […]
# The enzyme activity assay was performed in triplicate in a buffer composed of 50 mM phosphate buffer (pH=7.4), 0.1 mM Ellman's reagent, and 667 μM of pimeloyl-CoA (as substrate). […] The release of Coenzyme A was monitored by absorbance at 412 nm. The absorbance associated with the substrate only control, which contained boiled enzyme, was subtracted from the active enzyme assay absorbance and compared to the empty vector control.
# [2] = Carboxylate reductase activity assay, pimelate to pimelate semialdehyde (NADPH consumption, absorbance at 340 nm); details: purified enzyme enhanced by the gene product of sfp, 2 mM pimelate, 1 mM ATP, 1 mM NADPH, pH=7.5, room temperature, 20 min; against the empty vector control; FIG. 10
# Description: A sequence encoding a HIS-tag was added to the genes from Segniliparus rugosus and Segniliparus rotundus that encode the carboxylate reductases of SEQ ID NOs: 4 and 7, respectively (see FIGS. 7C and 7F), such that N-terminal HIS tagged carboxylate reductases could be produced. Each of the modified genes was cloned into a pET Duet expression vector along with a sfp gene encoding a HIS-tagged phosphopantetheine transferase from Bacillus subtilis, both under the T7 promoter. Each expression vector was transformed into a BL21[DE3] E. coli host and the resulting recombinant E. coli strains were cultivated at 37° C. in a 250 mL shake flask culture containing 50 mL LB media and antibiotic selection pressure, with shaking at 230 rpm. Each culture was induced overnight at 37° C. using an auto-induction media.
# The pellet from each induced shake flask culture was harvested via centrifugation. Each pellet was resuspended and lysed via sonication, and the cell debris was separated from the supernatant via centrifugation. […]
# Enzyme activity assays (i.e., from pimelate to pimelate semialdehyde) were performed in triplicate in a buffer composed of a final concentration of 50 mM HEPES buffer (pH=7.5), 2 mM pimelate, 10 mM MgCl2, 1 mM ATP and 1 mM NADPH. […] The consumption of NADPH was monitored by absorbance at 340 nm.
# [3] = Carboxylate reductase activity assay, N7-acetyl-7-aminoheptanoate to N7-acetyl-7-aminoheptanal (NADPH consumption, absorbance at 340 nm); details: purified enzyme enhanced by the gene product of sfp, 2 mM N7-acetyl-7-aminoheptanoate, 1 mM ATP, 1 mM NADPH, pH=7.5, room temperature, 20 min; against the empty vector control; FIG. 12
# Description: The activity of each of the N-terminal His-tagged carboxylate reductases of SEQ ID NOs: 3, 6, and 7 (see Examples 4, and FIGS. 7B, 7E, and 7F) for converting N7-acetyl-7-aminoheptanoate to N7-acetyl-7-aminoheptanal was assayed in triplicate in a buffer composed of a final concentration of 50 mM HEPES buffer (pH=7.5), 2 mM N7-acetyl-7-aminoheptanoate, 10 mM MgCl2, 1 mM ATP, and 1 mM NADPH. The assays were initiated by adding purified carboxylate reductase and phosphopantetheine transferase or the empty vector control to the assay buffer containing the N7-acetyl-7-aminoheptanoate then incubated at room temperature for 20 min. The consumption of NADPH was monitored by absorbance at 340 nm.
molecule,measurement,setting,value
B1,thioesterase activity for converting pimeloyl-CoA to pimelate,[1],accepted pimeloyl-CoA as substrate
B2,carboxylate reductase activity for converting pimelate to pimelate semialdehyde,[2],accepted pimelate as substrate
B3,carboxylate reductase activity for converting N7-acetyl-7-aminoheptanoate to N7-acetyl-7-aminoheptanal,[3],accepted N7-acetyl-7-aminoheptanoate as substrate
